In assay [1] the target is SNARE complex (VAMP, syntaxin and SNAP-25 bound to GST) (UniProt P60880). In words: competition ELISA: VAMP on plate, SNAP-25-GST + syntaxin, anti-GST detection; compound at 0.5 mM. (ELISA stands for enzyme-linked immunosorbent assay.)
The target is the same in assay [2]. The assay can be described thus: competition ELISA: VAMP on plate, SNAP-25-GST + syntaxin, anti-GST detection; compound at 2.5 mM.
Assay [3] deals with SNARE complex (VAMP, syntaxin and SNAP-25) (UniProt P60880). The assay can be described thus: SDS-PAGE of SNARE complex: VAMP + syntaxin + compound, then SNAP-25; image analysis; compound at 1 mM.
For assay [4] the target is unchanged. In words: SDS-PAGE of SNARE complex: VAMP + syntaxin + compound, then SNAP-25; image analysis; compound at 5 mM.

Non-standard residues stand in square brackets, D forms with d. *: point of attachment. Met(O2) = CS(=O)(=O)CC[C@H](N)C(=O)O; Palmitoyl = CCCCCCCCCCCCCCCC(=O)*; NHhexadecyl = CCCCCCCCCCCCCCCCN*; Met(O) = CS(=O)CC[C@H](N)C(=O)O; Myristoyl = CCCCCCCCCCCCCC(=O)*

SNARE complex (VAMP, syntaxin and SNAP-25), sequence (P60880 whole entry, one chain of several): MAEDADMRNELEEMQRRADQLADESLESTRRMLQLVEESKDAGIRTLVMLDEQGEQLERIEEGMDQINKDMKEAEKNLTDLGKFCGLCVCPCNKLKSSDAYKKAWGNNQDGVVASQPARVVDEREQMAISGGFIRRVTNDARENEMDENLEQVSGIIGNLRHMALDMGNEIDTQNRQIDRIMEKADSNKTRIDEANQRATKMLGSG
SNARE complex (VAMP, syntaxin and SNAP-25 bound to GST), sequence (P60880 whole entry, one chain of several): as above

For the molecule Ac-DHFLNWM-NH2 [Ac-SEQ ID NO:34-NH2], the % inhibition formation SNARE complex was determined as 27% in assay [1], 85% in assay [2], 14% in assay [3] and 59% in assay [4].
In the same order, the values of Ac-EDLKRWM-NHhexadecyl [Ac-SEQ ID NO:14-NH-(CH2)15-CH3] are 11%, 35%, 43% and 85%.
Consider Ac-NDLKDWM-NH2 [Ac-SEQ ID NO:23-NH2], for which the % inhibition formation SNARE complex in assay [1] worked out at 10%; in assay [2], 60%.
In the same order, the values of Ac-EHLKQWM-OH [Ac-SEQ ID NO:1-OH] are 29% and 59%.
For the molecule Ac-DHFLDWM-NH2 [Ac-SEQ ID NO:25-NH2], the % inhibition formation SNARE complex came out at 40% in assay [1], 71% in assay [2], 83% in assay [3] and 100% in assay [4].
In the same order, the values of Palmitoyl-DHFQQRM-NH2 [Palm-SEQ ID NO:24-NH2] are 36%, 44%, 17% and 66%.
For Ac-RHFLQWM-NH2 [Ac-SEQ ID NO:13-NH2], in assay [2], the % inhibition formation SNARE complex was found to be 20%.
Take Ac-DHLKKWM-NH2 [Ac-SEQ ID NO:22-NH2]: the figures for the % inhibition formation SNARE complex in assay [1] and in assay [2] were 18% and 72%, respectively.
Regarding Ac-DHFLDW[Met(O)]-NH2 [Ac-SEQ ID NO:56-NH2], the % inhibition formation SNARE complex in assay [1] came to 16%; in assay [2] it was 64%; in assay [3], 40%; in assay [4], 91%.
Consider Ac-NHLKNWM-NH2 [Ac-SEQ ID NO:31-NH2], for which the % inhibition formation SNARE complex in assay [1] is 26%; in assay [2] it was 59%.
Take Ac-EDLKRWM-NH2 [Ac-SEQ ID NO:14-NH2]: the % inhibition formation SNARE complex in assay [1] was found to be 43%; in assay [2], 67%; in assay [3], 83%; in assay [4], 100%.
In the same order, the values of Ac-EHLKQWM-NH2 [Ac-SEQ ID NO:1-NH2] are 33%, 63%, 59% and 100%.
With Palmitoyl-DHFLNWM-NH2 [Palm-SEQ ID NO:34-NH2], the % inhibition formation SNARE complex in assay [1] was 19%; in assay [2], 51%.
As to Ac-NHLKHWM-NH2 [Ac-SEQ ID NO:32-NH2], in assay [2], the % inhibition formation SNARE complex is 19%.
As for Ac-QHLKEWM-NH2 [Ac-SEQ ID NO:12-NH2], the % inhibition formation SNARE complex in assay [1] was determined as 20%; in assay [2], 71%.
Regarding Palmitoyl-EDLKRWM-NH2 [Palm-SEQ ID NO:14-NH2], the % inhibition formation SNARE complex in assay [1] amounted to 18%; in assay [2], 42%; in assay [3], 41%; in assay [4], 93%.
On to Ac-EHFLQWM-NH2 [Ac-SEQ ID NO:30-NH2], for which the % inhibition formation SNARE complex in assay [1] is 24%; in assay [2], 71%.
Regarding Ac-DHFLDW[Met(O2)]-NH2 [Ac-SEQ ID NO:61-NH2], the % inhibition formation SNARE complex in assay [1] stood at 8%; in assay [2], 26%; in assay [3], 44%; in assay [4], 89%.
In the same order, the values of Palmitoyl-DHFLDWM-NH2 [Palm-SEQ ID NO:25-NH2] are 24%, 53%, 36% and 85%.
For the molecule Ac-DHFQQRM-NH2 [Ac-SEQ ID NO:24-NH2], the % inhibition formation SNARE complex in assay [1] turned out to be 41%; in assay [2], 55%; in assay [3], 48%; in assay [4], 100%.
In the same order, the values of Ac-NHFLNWM-NH2 [Ac-SEQ ID NO:15-NH2] are 48%, 42%, 50% and 100%.
In the same order, the values of Palmitoyl-EHLKQWM-NH2 [Palm-SEQ ID NO:1-NH2] are 21%, 47%, 26% and 72%.
As to Ac-QDFLHWM-NH2 [Ac-SEQ ID NO:2-NH2], the % inhibition formation SNARE complex in assay [1] amounted to 26%; in assay [2], 64%; in assay [3], 37%; in assay [4] it was 80%.
Consider Myristoyl-NHFLNWM-NH2 [Myr-SEQ ID NO:15-NH2], for which the % inhibition formation SNARE complex in assay [2] was 19%; in assay [3], 23%; in assay [4], 76%.
With Palmitoyl-QHLHNVM-NH2 [Palm-SEQ ID NO:3-NH2], the % inhibition formation SNARE complex came to 20% in assay [1] and 51% in assay [2].
In the same order, the values of Ac-QHLHNVM-NH2 [Ac-SEQ ID NO:3-NH2] are 31% and 64%.
As to Ac-EHLKKWM-NH2 [Ac-SEQ ID NO:8-NH2], the figures for the % inhibition formation SNARE complex in assay [1] and in assay [2] were 11% and 44%, respectively.
In the same order, the values of H-EHLKQWM-NH2 [H-SEQ ID NO:1-NH2] are 30% and 58%.
As for Palmitoyl-NHFLNWM-NH2 [Palm-SEQ ID NO:15-NH2], the % inhibition formation SNARE complex in assay [1] amounted to 18%; in assay [2] it was 21%; in assay [3], 22%; in assay [4], 74%.
For the molecule Ac-QHLKNWM-NH2 [Ac-SEQ ID NO:27-NH2], the % inhibition formation SNARE complex in assay [2] came out at 14%.

For the origin of these results see patent EP2649983A1, “Compounds which inhibit neuronal exocytosis (II)” (Lipotec, S.A., priority 2012, dated 2013).
